Assays:
Experiment in all cases: ELISA signal over HTRF expression signal, P. pastoris
Settings in all cases: remark: other sources report otherwise
11F4 = molecular target: 11F4
850 = molecular target: 850
11B4 = molecular target: 11B4
67C10 = molecular target: 67C10
66C8 = molecular target: 66C8
75E9 = molecular target: 75E9
58A11 = molecular target: 58A11
86H9 = molecular target: 86H9
35H3 = molecular target: 35H3
51G10 = molecular target: 51G10
56D2 = molecular target: 56D2
79F8 = molecular target: 79F8
79D5 = molecular target: 79D5
51G3 = molecular target: 51G3
70F6 = molecular target: 70F6
80F10 = molecular target: 80F10
9C10 = molecular target: 9C10
7B6 = molecular target: 7B6
86B4 = molecular target: 86B4
97G10 = molecular target: 97G10
91C4 = molecular target: 91C4
71A4 = molecular target: 71A4
75H8 = molecular target: 75H8
75G5 = molecular target: 75G5
7D9 = molecular target: 7D9
48B10 = molecular target: 48B10
72D4 = molecular target: 72D4
91C8 = molecular target: 91C8
10F9 = molecular target: 10F9
79C2 = molecular target: 79C2
71C4 = molecular target: 71C4
90A9 = molecular target: 90A9
71H2 = molecular target: 71H2
58C8 = molecular target: 58C8
63D3 = molecular target: 63D3
54H4 = molecular target: 54H4
29C2 = molecular target: 29C2
2D9 = molecular target: 2D9

B1: CR6261 (antibody, V domains shown)
VH: EVQLVESGAEVKKPGSSVKVSCKASGGPFRSYAISWVRQAPGQGPEWMGGIIPIFGTTKYAPKFQGRVTITADDFAGTVYMELSSLRSEDTAMYYCAKHMGYQVRETMDVWGKGTTVTVSS
VL: QSVLTQPPSVSAAPGQKVTISCSGSSSNIGNDYVSWYQQLPGTAPKLLIYDNNKRPSGIPDRFSGSKSGTSATLGITGLQTGDEANYYCATWDRRPTAYVVFGGGTKLTVLG
In the case of B1, the fold increase of ratio over parental SEQ ID NO: 6 (11F4) is reported as 2.54, the ratio (binding signal/HTRF signal) (11F4) is reported as 15.1 and the fold increase of ratio over parental SEQ ID NO: 6 850 is reported as 4.07. For the same binder, the ratio (binding signal/HTRF signal) 850 was 24.2, the fold increase of ratio over parental SEQ ID NO: 6 (11B4) was 3.23 and the ratio (binding signal/HTRF signal) (11B4) was 19.2. The fold increase of ratio over parental SEQ ID NO: 6 (67C10) was 3.99, the ratio (binding signal/HTRF signal) (67C10) was 23.7 and the fold increase of ratio over parental SEQ ID NO: 6 (66C8) was 2.29. The ratio (binding signal/HTRF signal) (66C8) was 13.6, the fold increase of ratio over parental SEQ ID NO: 6 (75E9) was 2.17 and the ratio (binding signal/HTRF signal) (75E9) was 12.9. The fold increase of ratio over parental SEQ ID NO: 6 (58A11) was 1.67, the ratio (binding signal/HTRF signal) (58A11) was 9.93 and the fold increase of ratio over parental SEQ ID NO: 6 (86H9) was 5.77. For the same binder, the ratio (binding signal/HTRF signal) (86H9) was 34.3, the fold increase of ratio over parental SEQ ID NO: 6 (35H3) was 2.94 and the ratio (binding signal/HTRF signal) (35H3) was 17.4. For the same binder, the fold increase of ratio over parental SEQ ID NO: 6 (51G10) was 3.73, the ratio (binding signal/HTRF signal) (51G10) was 22.1 and the fold increase of ratio over parental SEQ ID NO: 6 (56D2) was 2.3. For the same binder, the ratio (binding signal/HTRF signal) (56D2) was 13.7, the fold increase of ratio over parental SEQ ID NO: 6 (79F8) was 2.64 and the ratio (binding signal/HTRF signal) (79F8) was 15.7. The fold increase of ratio over parental SEQ ID NO: 6 (79D5) was 8.46, the ratio (binding signal/HTRF signal) (79D5) was 50.2 and the fold increase of ratio over parental SEQ ID NO: 6 (51G3) was 9.97. The ratio (binding signal/HTRF signal) (51G3) was 59.2, the fold increase of ratio over parental SEQ ID NO: 6 (70F6) was 1.63 and the ratio (binding signal/HTRF signal) (70F6) was 9.66. For the same binder, the fold increase of ratio over parental SEQ ID NO: 6 (80F10) was 1.78, the ratio (binding signal/HTRF signal) (80F10) was 10.6 and the fold increase of ratio over parental SEQ ID NO: 6 (9C10) was 2.91. The ratio (binding signal/HTRF signal) (9C10) was 17.3, the fold increase of ratio over parental SEQ ID NO: 6 (7B6) was 1.66 and the ratio (binding signal/HTRF signal) (7B6) was 9.84. It also gave a fold increase of ratio over parental SEQ ID NO: 6 (86B4) of 13.1, a ratio (binding signal/HTRF signal) (86B4) of 77.7 and a fold increase of ratio over parental SEQ ID NO: 6 (97G10) of 2.12. The ratio (binding signal/HTRF signal) (97G10) was 12.6, the fold increase of ratio over parental SEQ ID NO: 6 (91C4) was 4.35 and the ratio (binding signal/HTRF signal) (91C4) was 25.8. It also gave a fold increase of ratio over parental SEQ ID NO: 6 (71A4) of 10.2, a ratio (binding signal/HTRF signal) (71A4) of 60.5 and a fold increase of ratio over parental SEQ ID NO: 6 (75H8) of 1.73. For the same binder, the ratio (binding signal/HTRF signal) (75H8) was 10.2, the fold increase of ratio over parental SEQ ID NO: 6 (75G5) was 6.38 and the ratio (binding signal/HTRF signal) (75G5) was 37.9. The fold increase of ratio over parental SEQ ID NO: 6 (7D9) was 2.07, the ratio (binding signal/HTRF signal) (7D9) was 12.3 and the fold increase of ratio over parental SEQ ID NO: 6 (48B10) was 3.16. The ratio (binding signal/HTRF signal) (48B10) was 18.8, the fold increase of ratio over parental SEQ ID NO: 6 (72D4) was 6.25 and the ratio (binding signal/HTRF signal) (72D4) was 37.1. It also gave a fold increase of ratio over parental SEQ ID NO: 6 (91C8) of 3.51, a ratio (binding signal/HTRF signal) (91C8) of 20.8 and a fold increase of ratio over parental SEQ ID NO: 6 (10F9) of 3.93. It also gave a ratio (binding signal/HTRF signal) (10F9) of 23.3, a fold increase of ratio over parental SEQ ID NO: 6 (79C2) of 8.62 and a ratio (binding signal/HTRF signal) (79C2) of 51.2. The fold increase of ratio over parental SEQ ID NO: 6 (71C4) was 5.13, the ratio (binding signal/HTRF signal) (71C4) was 30.4 and the fold increase of ratio over parental SEQ ID NO: 6 (90A9) was 7.72. The ratio (binding signal/HTRF signal) (90A9) was 45.8, the fold increase of ratio over parental SEQ ID NO: 6 (71H2) was 11.2 and the ratio (binding signal/HTRF signal) (71H2) was 66.3. For the same binder, the fold increase of ratio over parental SEQ ID NO: 6 (58C8) was 2.51, the ratio (binding signal/HTRF signal) (58C8) was 14.9 and the fold increase of ratio over parental SEQ ID NO: 6 (63D3) was 1.87. The ratio (binding signal/HTRF signal) (63D3) was 11.1, the fold increase of ratio over parental SEQ ID NO: 6 (54H4) was 8.39 and the ratio (binding signal/HTRF signal) (54H4) was 49.8. The fold increase of ratio over parental SEQ ID NO: 6 (29C2) was 2.32, the ratio (binding signal/HTRF signal) (29C2) was 13.8 and the fold increase of ratio over parental SEQ ID NO: 6 (2D9) was 2.76. The ratio (binding signal/HTRF signal) (2D9) was 16.4.

Reference: patent US20170209564A1
